These results are taken from patent publication US20060177442A1 (Bristol-Myers Squibb, published 2006).

The test deals with T1, CD30 on Hodgkin-derived cell lines (L540, L428) (human, UniProt P28908 19-595).
T1 sequence (looked up): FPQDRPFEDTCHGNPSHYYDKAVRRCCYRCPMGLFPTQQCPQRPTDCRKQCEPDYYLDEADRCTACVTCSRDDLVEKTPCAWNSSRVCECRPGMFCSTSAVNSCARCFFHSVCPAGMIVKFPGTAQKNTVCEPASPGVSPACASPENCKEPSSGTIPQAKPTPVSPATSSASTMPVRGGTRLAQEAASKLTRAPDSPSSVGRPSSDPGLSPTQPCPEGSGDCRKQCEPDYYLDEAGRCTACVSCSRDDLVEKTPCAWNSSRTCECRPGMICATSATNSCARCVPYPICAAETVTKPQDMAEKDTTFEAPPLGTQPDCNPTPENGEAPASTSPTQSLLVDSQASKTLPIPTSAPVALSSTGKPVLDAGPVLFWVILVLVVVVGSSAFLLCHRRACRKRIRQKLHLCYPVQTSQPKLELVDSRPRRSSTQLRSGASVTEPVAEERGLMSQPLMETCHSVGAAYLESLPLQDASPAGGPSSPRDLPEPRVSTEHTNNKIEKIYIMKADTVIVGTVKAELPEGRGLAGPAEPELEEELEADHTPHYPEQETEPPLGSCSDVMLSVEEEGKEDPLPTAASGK
The experiment in a line: cell-based or functional assay.

B1: fully human anti-CD30 monoclonal antibody 5F11 (antibody, V domains shown)
VH: QVQLQQWGAGLLKPSETLSLTCAVYGGSFSAYYWSWIRQPPGKGLEWIGDINHGGGTNYNPSLKSRVTISVDTSKNQFSLKLNSVTAADTAVYYCASLTAYWGQGSLVTVSS
VL: DIQMTQSPTSLSASVGDRVTITCRASQGISSWLTWYQQKPEKAPKSLIYAASSLQSGVPSRFSGSGSGTDFTLTISSLQPEDFATYYCQQYDSYPITFGQGTRLEIK
For B1, the “NF-κB-responsive luciferase reporter gene in transfected L428 cells” value was roughly 2 fold.
